Literature values in EP0314042A2, “Novel copolymers and superoxide dismutase modified with said copolymers” (KURARAY CO., LTD., priority 1987, dated 1989).

Key:
[1] = as compared with SOD; cited from earlier work
[2] = result in words, relative to SOD; cited from earlier work

Substance	enzymatic activity of SOD [1]	plasma half-life [2]
inulin-modified SOD: SOD modified with inulin (Japanese Kokai Tokkyo Koho No. 58-32826)	reduced	much prolonged
polyethylene glycol-modified-SOD: SOD converted to a giant molecule through modification with polyethylene glycol	markedly decreased	–
Ficoll-modified SOD: SOD converted to a giant molecule through modification with Ficoll	markedly decreased	–
